# B1: Isoform 2 of C-Jun-amino-terminal kinase-interacting protein 4 (Homo sapiens), O60271-2 (parent)
# chain: MELEDGVVYQEEPGGSGAVMSERVSGLAGSIYREFERLIGRYDEEVVKELMPLVVAVLENLDSVFAQDQEHQVELELLRDDNEQLITQYEREKALRKHAEEKFIEFEDSQEQEKKDLQTRVESLESQTRQLELKAKNYADQISRLEEREAELKKEYNALHQRHTEMIHNYMEHLERTKLHQLSGSDQLESTAHSRIRKERPISLGIFPLPAGDGLLTPDAQKGGETPGSEQWKFQELSQPRSHTSLKDELSDVSQGGSKATTPASTANSDVATIPTDTPLKEENEGFVKVTDAPNKSEISKHIEVQVAQETRNVSTGSAENEEKSEVQAIIESTPELDMDKDLSGYKGSSTPTKGIENKAFDRNTESLFEELSSAGSGLIGDVDEGADLLGMGREVENLILENTQLLETKNALNIVKNDLIAKVDELTCEKDVLQGELEAVKQAKLKLEEKNRELEEELRKARAEAEDARQKAKDDDDSDIPTAQRKRFTRVEMARVLMERNQYKERLMELQEAVRWTEMIRASRENPAMQEKKRSSIWQFVPTRFSRLFSSSSNTTKKPEPPVNLKYNAPTSHVTPSVKKRSSTLSQLPGDKSKAFDFLSEETEASLASRREQKREQYRQVKAHVQKEDGRVQAFGWSLPQKYKQVTNGQGENKMKNLPVPVYLRPLDEKDTSMKLWCAVGVNLSGGKTRDGGSVVGASVFYKDVAGLDTEGSKQRSASQSSLDKLDQELKEQQKELKNQEELSSLVWICTSTHSATKVLIIDAVQPGNILDSFTVCNSHVLCIASVPGARETDYPAGEDLSESGQVDKASLCGSMTSNSSAETDSLLGGITVVGCSAEGVTGAATSPSTNGASPVMDKPPEMEAENSEVDENVPTAEEATEATEGNAGSAEDTVDISQTGVYTEHVFTDPLGVQIPEDLSPVYQSSNDSDAYKDQISVLPNEQDLVREEAQKMSSLLPTMWLGAQNGCLYVHSSVAQWRKCLHSIKLKDSILSIVHVKGIVLVALADGTLAIFHRGVDGQWDLSNYHLLDLGRPHHSIRCMTVVHDKVWCGYRNKIYVVQPKAMKIEKSFDAHPRKESQVRQLAWVGDGVWVSIRLDSTLRLYHAHTYQHLQDVDIEPYVSKMLGTGKLGFSFVRITALMVSCNRLWVGTGNGVIISIPLTETNKTSGVPGNRPGSVIRVYGDENSDKVTPGTFIPYCSMAHAQLCFHGHRDAVKFFVAVPGQVISPQSSSSGTDLTGDKAGPSAQEPGSQTPLKSMLVISGGEGYIDFRMGDEGGESELLGEDLPLEPSVTKAERSHLIVWQVMYGNE
# Variants of: B1
# Conditions: with arf6_human ARF6, P62330
# Sequence of arf6_human ARF6, P62330 (P62330 whole entry): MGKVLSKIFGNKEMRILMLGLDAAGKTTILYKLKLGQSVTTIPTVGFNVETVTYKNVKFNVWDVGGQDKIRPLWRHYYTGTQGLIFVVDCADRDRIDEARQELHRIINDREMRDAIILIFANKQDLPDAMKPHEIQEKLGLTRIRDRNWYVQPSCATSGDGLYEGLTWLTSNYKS
row,effect of a mutation on the interaction,Variant
1,decreasing interaction,D425A

# Variants of: B1
# Conditions: with arf6_human ARF6, P62330
# Remark: another data set of the same source
row,effect of a mutation on the interaction,Variant
1,decreasing interaction,I421A

# — IntAct's records for PubMed 19644450
